Data: the Immune Epitope Database (IEDB)

Tests used:
[1] = target: HLA-B*48:01; test: IEDB peptide-MHC binding, purified MHC/direct/fluorescence; filed as Kd, often an IC50 or EC50 that approximates it; ≥ and ≤ were set here for values at or beyond the usual limits of such assays
[2] = target: HLA-B*40:01; test: IEDB peptide-MHC binding, purified MHC/competitive/radioactivity; filed as Kd, often an IC50 or EC50 that approximates it; ≥ and ≤ were set here for values at or beyond the usual limits of such assays
[3] = target: HLA-B*40:02; test: as above
[4] = target: HLA-B*45:01; test: as above
[5] = target: HLA-B*18:01; test: as above
[6] = target: HLA-B*44:03; test: as above
[7] = target: HLA-B*44:02; test: as above
[8] = source organism: Mammarenavirus machupoense
[9] = source organism: Mammarenavirus brazilense
[10] = source organism: SARS coronavirus Tor2
[11] = source organism: Mammarenavirus lassaense
[12] = source organism: Mammarenavirus choriomeningitidis

Q: Which Kd ([1]; source organism: Campylobacter jejuni subsp. jejuni 81-176) does the source give for FEKAKIEVL here?
A: ≥ 20000 nM

Q: For RECYVQRFYL, which Kd [2, 8] is on record?
A: 9010 nM

Q: What about the Kd [3, 8] of the same sequence?
A: 5.3 nM

Q: What about the Kd [4, 8] of the same sequence?
A: 1560 nM

Q: And the Kd [5, 8]?
A: 518 nM

Q: What about the Kd [6, 8] of the same sequence?
A: 1100 nM

Q: What about the Kd [7, 8] of the same sequence?
A: 1640 nM

Q: What does the source list for PEIWLQLNT?
A: Kd [2, 8]: ≥ 76100 nM; Kd [3, 8]: 9210 nM; Kd [4, 8]: ≥ 21100 nM; Kd [5, 8]: ≥ 77500 nM; Kd [6, 8]: 2350 nM; Kd [7, 8]: 14400 nM

Q: How did the Kd [2, 9] turn out when EDQGNPIVL was run?
A: 4860 nM

Q: What about the Kd [3, 9] of the same sequence?
A: ≥ 24200 nM

Q: What about the Kd [4, 9] of the same sequence?
A: 14900 nM

Q: And the Kd [5, 9]?
A: ≥ 52100 nM

Q: What about the Kd [6, 9] of the same sequence?
A: ≥ 78100 nM

Q: What about the Kd [7, 9] of the same sequence?
A: ≥ 36600 nM

Q: What does the source list for LEGSISYSEL?
A: Kd [2, 10]: 61.7 nM; Kd [3, 10]: 156 nM; Kd [4, 10]: 2210 nM; Kd [5, 10]: ≥ 45000 nM; Kd [6, 10]: 1500 nM; Kd [7, 10]: 5580 nM

Q: What does the source list for LEGSVRVVT?
A: Kd [2, 10]: 795 nM; Kd [3, 10]: 69.9 nM; Kd [4, 10]: 59.1 nM; Kd [5, 10]: 16900 nM; Kd [6, 10]: 986 nM; Kd [7, 10]: 951 nM

Q: RRFLEPVGK was tested. Which Kd ([1]; source organism: West Nile virus) did it give?
A: ≥ 20000 nM

Q: With KEAYCQEFFL as the sequence, how does the Kd [2, 11] read?
A: 10900 nM

Q: And the Kd [3, 11]?
A: 15.3 nM

Q: And the Kd [4, 11]?
A: 15600 nM

Q: And the Kd [5, 11]?
A: ≥ 30500 nM

Q: And the Kd [6, 11]?
A: 1180 nM

Q: What about the Kd [7, 11] of the same sequence?
A: 520 nM

Q: With GEVLSLDKL as the sequence, how does the Kd [2, 10] read?
A: 10.9 nM

Q: What about the Kd [3, 10] of the same sequence?
A: 30.7 nM

Q: What about the Kd [4, 10] of the same sequence?
A: 17300 nM

Q: And the Kd [5, 10]?
A: ≥ 77500 nM

Q: What about the Kd [6, 10] of the same sequence?
A: 2330 nM

Q: What about the Kd [7, 10] of the same sequence?
A: 7880 nM

Q: How did the Kd [2, 10] turn out when NEYRQYLDA was run?
A: 1760 nM

Q: What about the Kd [3, 10] of the same sequence?
A: 944 nM

Q: What about the Kd [4, 10] of the same sequence?
A: 98.8 nM

Q: And the Kd [5, 10]?
A: 2380 nM

Q: And the Kd [6, 10]?
A: 10900 nM

Q: And the Kd [7, 10]?
A: 12400 nM

Q: Which Kd [2, 12] does the source give for MDLLLFSTS here?
A: 7050 nM

Q: What about the Kd [3, 12] of the same sequence?
A: 265 nM

Q: What about the Kd [4, 12] of the same sequence?
A: 1060 nM

Q: What about the Kd [5, 12] of the same sequence?
A: 4090 nM

Q: What about the Kd [6, 12] of the same sequence?
A: 2680 nM

Q: And the Kd [7, 12]?
A: 6840 nM

Q: FEYISDAFSL was tested. Which Kd [2, 10] did it give?
A: 1.66 nM

Q: What about the Kd [3, 10] of the same sequence?
A: 838 nM

Q: And the Kd [4, 10]?
A: 6380 nM

Q: And the Kd [5, 10]?
A: 1800 nM

Q: And the Kd [6, 10]?
A: 1450 nM

Q: What about the Kd [7, 10] of the same sequence?
A: 3210 nM

Q: With RKHGGMLVR as the sequence, how does the Kd ([1]; source organism: Dengue virus 1 Singapore/S275/1990) read?
A: ≥ 20000 nM

Q: What does the source list for LEGYAFEHIV?
A: Kd [2, 10]: 17400 nM; Kd [3, 10]: 1790 nM; Kd [4, 10]: 316 nM; Kd [5, 10]: 1120 nM; Kd [6, 10]: ≥ 28400 nM; Kd [7, 10]: ≥ 51700 nM

Q: Which results are given for SDNGILCPT?
A: Kd [2, 8]: ≥ 68200 nM; Kd [3, 8]: 1330 nM; Kd [4, 8]: ≥ 77700 nM; Kd [5, 8]: ≥ 77500 nM; Kd [6, 8]: ≥ 78100 nM; Kd [7, 8]: ≥ 27800 nM
